Patent publication US20180016327A1 (Chugai, published 2018)
Substitutions are numbered along the chain they refer to.

B1: CFP0015 15L 50S (antibody, V domains shown)
VH: QVQLLESGGGLVQPGGSLRLSCAASGFTFSSYAMSWVRQAPGKGLEWVSAISGSGGSTYYADSVKGRFTISRDNSKNTLYLQMNSLRAEDTAVYYCARGDQIWYDQWYYFDMWGQGTLVTVSS
VL: DIQMTQSPSSLSASVGDRVTITCRASQSIEDDLAWYQQKPGKAPKLLIYSASNLQSGVPSRFSGSGSGTDFTLTISSLQPEDFATYYCQQYDSSPLTFGQGTKVEIK
B2: CFP0011 (antibody, V domains shown)
VH: QVQLVQSGAEVKKPGSSVKVSCKASGGTFSSYAISWVRQAPGQGLEWMGGIIPIFGTANYAQKFQGRVTITADESTSTAYMELSSLRSEDTAVYYCARDMSEFLGWSNYYSYPMDVWGQGTTVTVSS
VL: B1 VL with S50H, N53S, Y91S, S93N, L96Y
notes: IgG format
B3: CFP0015 15L 96H (antibody, V domains shown)
VH: B1 VH
VL: B1 VL with S50E, L96H
B4: CFP0011 11L 30H (antibody, V domains shown)
VH: B2 VH
VL: B1 VL with E30H, S50H, N53S, Y91S, S93N, L96Y
B5: CFP0015 15L 94W (antibody, V domains shown)
VH: B1 VH
VL: B1 VL with S50E, S94W
B6: CFP0015 15L 92Q (antibody, V domains shown)
VH: B1 VH
VL: B1 VL with S50E, D92Q
B7: CFP0015 15L 96F (antibody, V domains shown)
VH: B1 VH
VL: B1 VL with S50E, L96F
B8: CFP0011 11L 50A (antibody, V domains shown)
VH: B2 VH
VL: B1 VL with S50A, N53S, Y91S, S93N, L96Y
B9: CFP0011 11L 34N (antibody, V domains shown)
VH: B2 VH
VL: B1 VL with A34N, S50H, N53S, Y91S, S93N, L96Y
B10: CFP0011 11L 31N (antibody, V domains shown)
VH: B2 VH
VL: B1 VL with D31N, S50H, N53S, Y91S, S93N, L96Y
B11: CFP0011 11L 32Q (antibody, V domains shown)
VH: B2 VH
VL: B1 VL with D32Q, S50H, N53S, Y91S, S93N, L96Y
B12: CFP0011 11L 30A (antibody, V domains shown)
VH: B2 VH
VL: B1 VL with E30A, S50H, N53S, Y91S, S93N, L96Y
B13: CFP0015 15L 96W (antibody, V domains shown)
VH: B1 VH
VL: B1 VL with S50E, L96W
B14: CFP0011 11L 30D (antibody, V domains shown)
VH: B2 VH
VL: B1 VL with E30D, S50H, N53S, Y91S, S93N, L96Y
B15: CFP0015 15L 96P (antibody, V domains shown)
VH: B1 VH
VL: B1 VL with S50E, L96P
B16: CFP0015 15L 91H (antibody, V domains shown)
VH: B1 VH
VL: B1 VL with S50E, Y91H
B17: CFP0015 15L 94T (antibody, V domains shown)
VH: B1 VH
VL: B1 VL with S50E, S94T
B18: CFP0015 15L 50T (antibody, V domains shown)
VH: B1 VH
VL: B1 VL with S50T
B19: CFP0015 15L 96I (antibody, V domains shown)
VH: B1 VH
VL: B1 VL with S50E, L96I
B20: CFP0015 15L 93G (antibody, V domains shown)
VH: B1 VH
VL: B1 VL with S50E, S93G
B21: CFP0015 15L 93R (antibody, V domains shown)
VH: B1 VH
VL: B1 VL with S50E, S93R
B22: CFP0011 11L 31A (antibody, V domains shown)
VH: B2 VH
VL: B1 VL with D31A, S50H, N53S, Y91S, S93N, L96Y
B23: CFP0015 15L 91E (antibody, V domains shown)
VH: B1 VH
VL: B1 VL with S50E, Y91E
B24: CFP0015 15L 92T (antibody, V domains shown)
VH: B1 VH
VL: B1 VL with S50E, D92T
B25: CFP0015 15L 92E (antibody, V domains shown)
VH: B1 VH
VL: B1 VL with S50E, D92E
B26: CFP0015 15L 93N (antibody, V domains shown)
VH: B1 VH
VL: B1 VL with S50E, S93N
B27: CFP0015 15L 94F (antibody, V domains shown)
VH: B1 VH
VL: B1 VL with S50E, S94F
B28: CFP0011 11L 32N (antibody, V domains shown)
VH: B2 VH
VL: B1 VL with D32N, S50H, N53S, Y91S, S93N, L96Y
B29: CFP0015 15L 91T (antibody, V domains shown)
VH: B1 VH
VL: B1 VL with S50E, Y91T
B30: CFP0011 11L 50D (antibody, V domains shown)
VH: B2 VH
VL: B1 VL with S50D, N53S, Y91S, S93N, L96Y
B31: CFP0015 15L 96Y (antibody, V domains shown)
VH: B1 VH
VL: B1 VL with S50E, L96Y
B32: CFP0015 15L 91Q (antibody, V domains shown)
VH: B1 VH
VL: B1 VL with S50E, Y91Q
B33: CFP0015 15L 50Y (antibody, V domains shown)
VH: B1 VH
VL: B1 VL with S50Y
B34: CFP0015 15L 91S (antibody, V domains shown)
VH: B1 VH
VL: B1 VL with S50E, Y91S
B35: CFP0011 11L 31H (antibody, V domains shown)
VH: B2 VH
VL: B1 VL with D31H, S50H, N53S, Y91S, S93N, L96Y
B36: CFP0015 15L 94Y (antibody, V domains shown)
VH: B1 VH
VL: B1 VL with S50E, S94Y
B37: CFP0015 15L 92P (antibody, V domains shown)
VH: B1 VH
VL: B1 VL with S50E, D92P
B38: CFP0015 15L 53T (antibody, V domains shown)
VH: B1 VH
VL: B1 VL with S50E, N53T
B39: CFP0015 15L 93D (antibody, V domains shown)
VH: B1 VH
VL: B1 VL with S50E, S93D
B40: CFP0015 15L 91D (antibody, V domains shown)
VH: B1 VH
VL: B1 VL with S50E, Y91D
B41: CFP0015 15L 53H (antibody, V domains shown)
VH: B1 VH
VL: B1 VL with S50E, N53H
B42: CFP0015 15L 53S (antibody, V domains shown)
VH: B1 VH
VL: B1 VL with S50E, N53S
B43: CFP0015 15L 92S (antibody, V domains shown)
VH: B1 VH
VL: B1 VL with S50E, D92S
B44: CFP0011 11L 30S (antibody, V domains shown)
VH: B2 VH
VL: B1 VL with E30S, S50H, N53S, Y91S, S93N, L96Y
B45: CFP0015 15L 91R (antibody, V domains shown)
VH: B1 VH
VL: B1 VL with S50E, Y91R

Molecular target: T1, human C5 (human, UniProt P01031 19-673; P01031 678-1676, Beta and alpha chains are disulfide-linked and the protein is glycosylated.)
T1 construct: Either in-house recombinant C5 or plasma derived C5 (CALBIOCHEM) was used; also called recombinant human C5; plasma derived human C5
Test: Biacore, captured antibody, pH 7.4, 37 C;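 note: biacore binding response of anti-C5 antibody light chain variants captured on chip with human C5 injected, ACES running buffer containing 1.2 mM CaCl₂, parent light chain antibody set to 100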

| Binder | % binding (parent = 100) |
| --- | --- |
| B1 | 44.2% |
| B2 | 100% |
| B3 | 50.7% |
| B4 | 13.6% |
| B5 | 4.5% |
| B6 | 59.7% |
| B7 | 11.8% |
| B8 | 95.2% |
| B9 | 29.2% |
| B10 | 125% |
| B11 | 18.4% |
| B12 | 100% |
| B13 | 3.6% |
| B14 | 71.4% |
| B15 | 49% |
| B16 | 81.5% |
| B17 | 53.1% |
| B18 | 26.9% |
| B19 | 103% |
| B20 | 78.6% |
| B21 | 96% |
| B22 | 112% |
| B23 | 30.1% |

| Binder | % binding (parent = 100) |
| --- | --- |
| B24 | 74.1% |
| B25 | 99.8% |
| B26 | 80.4% |
| B27 | 10.6% |
| B28 | 3.6% |
| B29 | 50.7% |
| B30 | 58.2% |
| B31 | 7.5% |
| B32 | 96.4% |
| B33 | 46.9% |
| B34 | 27.3% |
| B35 | 100% |
| B36 | 46.1% |
| B37 | 21.7% |
| B38 | 75.8% |
| B39 | 45.1% |
| B40 | 20.4% |
| B41 | 80.8% |
| B42 | 73.6% |
| B43 | 51.3% |
| B44 | 44.5% |
| B45 | 2.4% |
